In the supplement of paper PMC10567573:

B1: RAB11B (parent)
chain: AVPTDEARAFAEKNNLSFIETSAL
B2: ANKRD44 (parent)
chain: FHCIETLVTTGANVNETDDWGRTA

Variants of: B1
Test: protein stability index of a GFP-peptide fusion (GPS, HEK-293T) (PSI 1-6); higher = more stable
Conditions: c terminus: a fixed tail appended
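Also: lentivirally expressed fusions sorted by FACS into six bins by GFP to DsRed ratio, PSI derived from sequencing read proportions per bin multiplied by bin number.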

Variant | protein stability index
P3M | 2.43
P3I | 2.63
P3H | 2.33
P3K | 2.44
F10Q | 3.45
F10E | 4.11
F10D | 4.06
F10M | 2.9
F10K | 2.89
F10G | 3.12
F10V | 3.41
F10P | 2.73
F10C | 3.1
F10H | 3.74
F10A | 3.38
F10S | 3.28
F10N | 3.25
F10L | 3.19
F10I | 3.33
F10W | 2.34
F10R | 2.74
F10T | 3.78

Variants of: B2
Test: as above
Conditions: c terminus: a fixed tail appended

Variant | protein stability index
D18N | 2.26
D18K | 1.65
D18C | 2.14
D18G | 1.79
D18T | 1.85
D18Y | 2.46
H2T | 3.08
H2Y | 1.89
H2K | 3.34
H2G | 3.71
H2R | 3.46
W20M | 2.47
W20T | 3.27
W20V | 2.77
W20D | 3.2
A12P | 1.81
A12L | 2.45
A12I | 1.7
A12G | 1.52
E5Y | 3.36
E5Q | 1.48
E5L | 4.06
E5T | 1.82
E5G | 2.11
E5K | 2.14

Variant | protein stability index
G11F | 1.47
G11E | 2.94
G11H | 1.53
G11L | 2.44
G11C | 2.09
G11P | 2.23
I4L | 2.65
I4R | 2.61
I4F | 2.36
I4E | 3.59
I4Q | 2
I4Y | 1.9
I4A | 2.1
I4H | 2.15
I4S | 2.69
I4N | 2.87
I4C | 2.33
I4K | 2.11
T6R | 1.96
T6P | 2.08
T6F | 2.03
T6W | 3.88
T6C | 1.75
T6Y | 3.59
T6A | 2.16

Variant | protein stability index
L7K | 2.89
L7R | 2.66
L7S | 2.57
L7F | 2.86
G21Q | 2.21
G21F | 1.87
G21P | 1.98
G21A | 2.12
G21M | 2.04
G21H | 2.32
G21C | 1.76
G21S | 1.89
E16I | 1.52
E16R | 1.76
E16C | 2.16
E16W | 2.43
E16T | 1.53
E16F | 1.86
E16S | 1.78
V14A | 2.2
V14E | 3.04
V14P | 2.71
V14C | 2.19
V14L | 2.08
V14M | 2.07

Variant | protein stability index
N13D | 2.51
N13Y | 1.68
N13H | 2.13
N13M | 1.5
N13G | 2.21
N13V | 2.61
N13P | 2.41
N13S | 2.39
T9H | 2.18
T9M | 1.45
T9Y | 1.54
T9L | 1.77
T9S | 2.23
T9E | 3.12
T9Q | 2.63
T9D | 3.26
A24E | 2.27
A24N | 2.03
A24F | 2.24
A24V | 2.01
A24I | 1.88
T23V | 2.14
T23N | 2.17
T23R | 2.05
T23Y | 1.83

Variant | protein stability index
R22V | 2.29
R22Y | 1.95
R22H | 1.98
R22D | 3.09
R22F | 1.65
R22N | 2.35
R22G | 1.88
N15G | 1.85
N15F | 1.96
N15S | 1.64
N15P | 2.34
N15K | 2.44
T10I | 1.7
T10L | 1.65
T10Y | 2.14
T10H | 2.08
T10S | 2.08
T10P | 2.36
T17D | 2.29
T17C | 2.14
T17N | 1.86
C3T | 2.65
C3M | 2.31
C3E | 3.96
C3H | 2.79

Variant | protein stability index
C3V | 2.62
C3P | 3.36
C3S | 2.69
F1L | 3.31
F1K | 4.18
F1V | 3.68
F1A | 4.69
F1P | 4.56
F1E | 4.77
F1H | 4.18
V8K | 2.42
V8E | 3.35
V8C | 2.03
V8I | 1.8
V8D | 3.76
V8Y | 2.27
D19G | 1.79
D19I | 3.48
D19E | 2.49
D19N | 1.75
